Assay results published in publication PMC10881513 (Nature Communications, 2024).

Biological target: ASFV RNA polymerase subunit vRPB3-11 (African swine fever virus, strain BA71V, UniProt Q65184 1-359)
Assay: cryo-EM structure
Details: both partners purified

Sequence of ASFV RNA polymerase subunit vRPB3-11 (Q65184 whole entry): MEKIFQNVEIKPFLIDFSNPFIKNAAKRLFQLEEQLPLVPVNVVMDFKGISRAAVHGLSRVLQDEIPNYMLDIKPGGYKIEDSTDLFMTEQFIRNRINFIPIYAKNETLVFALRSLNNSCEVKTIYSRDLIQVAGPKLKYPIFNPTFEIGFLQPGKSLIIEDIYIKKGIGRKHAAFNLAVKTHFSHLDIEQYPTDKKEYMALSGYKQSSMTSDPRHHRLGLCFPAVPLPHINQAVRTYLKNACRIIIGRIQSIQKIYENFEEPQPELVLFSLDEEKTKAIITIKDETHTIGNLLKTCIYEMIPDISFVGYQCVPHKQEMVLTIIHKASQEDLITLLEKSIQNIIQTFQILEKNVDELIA

B1: ASFV RNA polymerase subunit vRPB10 (natural protein)
chain: MLIPVVCFTCGFPIGTYAAIFDKARTEYIKTKMDGTLPQNIPLDASLQIELKDLITALGIPMRVCCRTHLITTLDYRKYY
- binding result: binds
